Measured values published in the supplement of paper PMC9170038.

Test system: MS2 coat protein
Test: apparent KD of MS2 coat protein; designed switch direction (-1 OFF switch, 1 ON switch): -1; higher = weaker reporter binding
Procedure, shortened: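 Stalled E. coli RNA polymerase transcribed designed RNA switches on Illumina chips, which were then titrated with SNAP-549-labelled MS2 coat protein, doubling from 0.7 or 1.5 nM to 3 µM. Steps lasted from 0.8–1.5 h at the lowest concentration to 10–20 min at the highest. The apparent KD is each design's median over clusters of curve-fitted normalised fluorescence.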

[1] = Eterna round: R95, input ligand: FMN 200 uM
[2] = Eterna round: R95, input ligand: microRNA oligo, concentration not stated
[3] = Eterna round: R95, input ligand: none
[4] = input ligand: microRNA oligo, concentration not stated

Sequence | apparent KD of MS2 coat protein (input ligand: FMN 200 uM) [nM] | apparent KD of MS2 coat protein (input ligand: none) [nM] | apparent KD of MS2 coat protein [1] [nM] | apparent KD of MS2 coat protein [2] [nM] | apparent KD of MS2 coat protein [3] [nM] | apparent KD of MS2 coat protein [4] [nM]
AAACCUAAUGUUAGGAUAUGCUUCGGGCUUCCGCUGCAGAAGGAACAUGAGGAUCACCCAUGUCAAAUAAAAUC [JL-BMX4-4.39 ViennaUCT mod] (Eterna round: R97, puzzle: Brourd's mod of Exclusion 4) | 81.8 | 17.6 |  |  |  | 
GACUAGGGAGGAUAUAUUUACAGUGUACCUCGGGUGAUCGCACUUGAGGAUCACCCAAGUAGAAGGCUCGAGGG [EX2 #27] (Eterna round: R97, puzzle: Exclusion 2) | 30 | 35.9 |  |  |  | 
UGAAGGUCAGGAUAUGAGUCUAUCUGACGCAGACAUAGACAUUAGAAGGGACAUGAGGAUCACCCAUGUGGGAC [Eternabot (L1) Solution 29] (Eterna round: R97, puzzle: Exclusion 4) | 106 | 84.8 |  |  |  | 
CUGAGCUGAGGAUAUACAUGAGGAUCACCCAUGUAAAGCAGCUUGCGUACAGGCAGAUGUAGAAGGCAGUUCGG [Mod of JL 16 - Jieux - Exclusion 3] (Eterna round: R97, puzzle: Exclusion 3) | 37.4 | 18.1 |  |  |  | 
UCAUAACAUGAGGAUCACCCAUGUGAGGAUAUGAUACUAUGUACUUCGGUACAUAGUAUCAGAAGGCGCAUACU [Brourd's Ex1-3: 11 (nt 68 G)] (puzzle: Exclusion 1) |  |  | 115 | 55.2 | 49.1 | 
CCGGAAAUACAGGAUAUCGUAUCGGAUACGAUACGAGAAGGGUAUACAUGAGGAUCACCCAUGUGUCCUACCGG [Fiskers Ex 6 - 51] (Eterna round: R96, puzzle: Exclusion 6) | 30.1 | 26.3 |  |  |  | 20.2
AAGCAUUGCCAAAGGUAGUGCAAAACAUGAGGAUCACCCAUGUAGGAUAUGGUAGGCAAAGCUUACCAGAAGGACAUGAUAAAU [Mat - Exclusion NG 3 - Mod of JL - D19] (Eterna round: R96, puzzle: Exclusion NG 3) | 218 | 42 |  |  |  | 28
AAGAGUGAGCGAGGAUAUUGAUUUUGGCGUAGUCAAGAAGGCGCGUACAUGAGGAUCACCCAUGUGCUCAGAGCGCAAAAGGGU [Gequon] (Eterna round: R96, puzzle: Exclusion NG 1) | 208 | 68.2 |  |  |  | 49.8
AAGAAACAUGAGGAUCACCCAUGUGAGGAUAUGGAAAAGAAAAGAAAAGAAAGAAGAAUCAGAAGGCACAAAGG [salish99-ex1_r3_020] (puzzle: Exclusion 1) |  |  | 40.8 | 33.7 | 37.6 | 
GCUUGAGCUGUGAGGAUAUUUCGAGUGAAAGCUUGAGAGAAGGCACAUGAGGAUCACCCAUGUAAGGUUCGAGU [-26, -23.9 kcal, A 28%, 1bis-1bis] (Eterna round: R97, puzzle: Brourd's mod of Exclusion 4) | 13.6 | 13.2 |  |  |  | 
UUGUACCGGUGAGGAUAUUUUUAAUAGAACUUUAUGAUAUACAUGAGGAUCACCCAUGUUACUUUAAAGAAGGCAUCGGAUUAU [JL JR Sub091 mod 1] (Eterna round: R96, puzzle: Exclusion NG 2) |  |  |  |  |  | 12.9
GCUUGUGGGCAAGGAUAUCCUACGCUGUUCUGGUUCGUGUCUGUCACAUGAGGAUCACCCAUGUGGGAGAAGGUGCCUUUGGUG [Design 63] (Eterna round: R96, puzzle: Exclusion NG 2) | 13.7 | 16.2 |  |  |  | 12.7
UAAUAACAUGUAGGAUAUGCGUGGCGAAGCUAUGCAGAAGGACAUGAGGAUCACCCAUGUUAAAGCGUCUGAGAACAGAUGCGA [Mat - Exclusion NG 1 - Mod of JL - D98] (Eterna round: R96, puzzle: Exclusion NG 1) | 165 | 30.5 |  |  |  | 24.9
ACUGGUCGAGGAUAUACAAUCGUGCUUCGGCACGUAAGAUCACAUGAGGAUCACCCAUGUAGAAGGUGACCAGU [E2/1-B2] (Eterna round: R97, puzzle: Exclusion 2) | 135 | 28.3 |  |  |  | 
UGUGCGUAUGUGAGGAUAUGCUGGUCCUUGGAUCAGCAGAAGGCACAUGAGGAUCACCCAUGUGGUGUCGUACU [salish99_Bmod_Ex4_009] (puzzle: Brourd's mod of Exclusion 4) |  |  |  | 202 |  | 
GGUGCGAGUGUGAGGAUAUGCUGGUCGUAAGAUCAGCAGAAGGCACAUGAGGAUCACCCAUGUGAAAACGUACC [Mat - Exclusion 4 - JL Mod - D75] (puzzle: Brourd's mod of Exclusion 4) |  |  |  | 18.8 |  | 
ACAUGAGGAUCACCCAUGUGAAAACAAUGGCUGACACAGAGAUAGGAUAUAUGUGCAUAUCAAACAUAGAAGGGUCAUAACUGG [Deportation 85 - Jieux - Exclusion NG 3] (Eterna round: R96, puzzle: Exclusion NG 3) |  |  |  |  |  | 40.6
ACAACAAGCUUUUUGUUCGUAGAACAUGAUGCUCUAGUCACAUGAGGAUCACCCAUGUCAGCCAGUUAGAUAGGUGA [JR_SV3TOV2_Sub064] (Eterna round: R96, puzzle: Sensor v3, turn-off variant 2) | 96.7 | 86 |  |  |  | 133
UCACGGGACUAAGGAUAUAUGAGAGCCAUUAACAUAGAAGGUAGAAUGUUAGAUCAUAAACUAAACAUGAGGAUCACCCAUGUU [JR_ExcNG1_Sub093] (Eterna round: R96, puzzle: Exclusion NG 1) | 19.6 | 23.2 |  |  |  | 20.2
CAGUACUGAGGAUAUACAUGAGGAUCACCCAUGUGUUCCUGCUAGGAAACUAGCAAAGGUAGAAGGCAGUACUG [Salish 065 m3] (Eterna round: R97, puzzle: Exclusion 3) | 464 | 27.9 |  |  |  | 
GUUUGACAUGAGGAUCACCCAUGUGAGGAUAUACGAUUAGCUGCUAGGUAGUUAGUAUGUAGAAGGUGCGUGUU [EX1 #69] (Eterna round: R97, puzzle: Exclusion 1) | 97.9 | 117 |  |  |  | 
AUCAGCUCGUCAGGAUAUAUUAACAUGAGGAUCACCCAUGUAAGAUCAGGCUUCGGCCAAUGUUAAUAGAAGGGACGAGCUGAU [ENG2/12-B2] (Eterna round: R96, puzzle: Exclusion NG 2) | 710 | 133 |  |  |  | 29
ACCUCACAUGAGGAUCACCCAUGUCAGGAUAUCUAUUAUUGCAGCAUUCCUGUCGCUGAGAGAAGGGACAUUAA [EX1 #28] (Eterna round: R97, puzzle: Exclusion 1) | 29.4 | 23.7 |  |  |  | 
GAGUGACAUGAGGAUCACCCAUGUGAGGAUAUCGGACGGACCUUGUUGGCUUCCGCCGCGAGAAGGCACCUCGG [Exclusion 1 V27] (puzzle: Exclusion 1) |  |  |  | 32.5 |  | 
CUGGUUGUCGAGGAUAUGCACCAGCUCACUGACGCAGAAGGCGACACAUGAGGAUCACCCAUGUCGGUUCGCGU [salish99_ex6_r004_436] (Eterna round: R97, puzzle: Exclusion 6) | 30.7 | 28.2 |  |  |  | 
UUAGUGUAAGGAUAUGCAAACCACGGAAAUAAAACGUGGAGGUAGAAGGUACAUGAGGAUCACCCAUGUUAAAC [Mod of Anonveat 25 - Jieux - Exclusion 4] (Eterna round: R97, puzzle: Exclusion 4) | 34 | 20.2 |  |  |  | 
ACAUGUUAUCCAUGAUAUCACAUGAGGAUCACCCAUGUUAUGGCGAUUUUGAGGUGUAAGUUUUUUGCUCGUCUUAU [JR_STOV1_Sub058] (Eterna round: R97, puzzle: Sensor, turn-off variant 1) | 51.5 | 61.1 |  |  |  | 
CCAAGAUAGGAAGGAUAUUGUACAUGAGGAUCACCCAUGUAAUAAAUGAGGAUCACGGAUGUAGACAAGAAGGUCCGGAUAAGC [Ostracism 5 - Jieux - Exclusion NG 2] (Eterna round: R96, puzzle: Exclusion NG 2) | 84.1 | 45.1 |  |  |  | 25.1
AAUAAUAAUGUGAGGAUAUCUAGAGCUUCGGCUCUAGAGAAGGCACAUGAGGAUCACCCAUGUCUCAAUAAUAA [BmEx4/2-E4] (Eterna round: R97, puzzle: Brourd's mod of Exclusion 4) | 263 | 53.4 |  |  |  | 
AUUAAAACAUAGGAUAUCGAAUUUAUCAUUUAACGAGAAGGAUGAACAUGAGGAUCACCCAUGUGGUAUCAUGG [Mat - Exclusion 6 - JL Mod - D6] (puzzle: Exclusion 6) |  |  |  | 165 |  | 
